Data as given in the supplement of paper PMC10567573.

B1: PLD5 (parent)
chain: WIVDKQHVYIGSAGLDWQSLGQMK
B2: KLHDC10 (parent)
chain: PSLLELAWEKLLAAFPNLANLSRT

Variants of: B1
Assay: protein stability index of a GFP-peptide fusion (GPS, HEK-293T) (PSI 1-6); higher = more stable
Settings: c terminus: a fixed tail appended
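Further: lentivirally expressed fusions sorted by FACS into six bins by GFP to DsRed ratio, PSI derived from sequencing read proportions per bin multiplied by bin number.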

Protein stability index: each site, then its substitutions
D4: L 1.84 | A 1.83 | Q 1.45
L20: I 1.97 | E 2.3
H7: S 2.26 | N 1.48
S12: W 1.92 | Q 1.6
Q6: V 2.08 | T 1.84 | E 1.95
M23: C 2.21 | A 1.55 | E 2.11 | R 1.97 | P 1.85 | N 1.9
Y9: H 1.75 | W 1.75 | R 1.41
G11: M 2.25 | F 2.11 | V 2.02 | I 2.71 | H 1.92
V3: A 1.86
D16: G 2.06 | P 1.79 | I 1.94 | M 2.83
L15: N 2.01 | Y 1.67 | I 1.31 | K 2.02 | A 1.8 | C 1.47
V8: P 2.06 | S 1.69 | G 1.35 | C 1.58 | I 2.31
A13: D 1.33 | K 1.96 | G 2.05 | E 1.72 | I 3.29
K5: A 4.17
I10: N 2.16 | W 1.96 | F 2.26 | K 2.27
Q18: Y 2.65 | F 4.52
Q22: H 2.74 | D 1.97
G14: P 2.23 | Y 1.79 | I 2.97 | A 1.51 | C 2.19 | W 3.18 | M 1.63
G21: Q 1.75 | H 2.52 | A 2.17
K24: F 2.05 | W 2.97 | D 2.02
I2: E 2.18 | H 1.88 | V 1.39
W17: Y 1.89 | T 1.9 | K 1.72 | S 2.36 | C 1.73
S19: E 2.06 | K 2.22 | Y 1.91
W1: G 2.67 | F 2.4 | R 2.77 | S 2.2 | T 2.41

Variants of: B2
Assay: as above
Settings: c terminus: a fixed tail appended

Protein stability index: each site, then its substitutions
N17: H 2.13 | Y 2.44 | P 1.97 | Q 1.94 | R 2.09 | L 2.15 | M 2.56 | T 1.8 | F 2.25 | S 2.29 | D 2.03 | K 1.43 | C 1.81 | W 2.94 | E 1.62 | V 2.18 | I 2.01 | G 3.66 | A 2.5
A19: H 1.93 | S 2 | Q 2.37 | N 2.29 | R 2.4 | V 2.3 | P 2.29 | K 1.95 | C 2.04 | W 1.57 | G 2.17 | I 2.32 | T 1.77 | E 2.31 | F 2 | L 1.8 | D 2.46 | Y 2.02 | M 2.1
R23: S 1.55 | P 1.99 | F 1.96 | Y 1.67 | A 1.55 | V 2.33 | T 2.22 | I 1.78 | H 2.02 | D 1.28 | G 2.76 | C 1.98 | N 2.17 | E 1.87 | L 2.42 | Q 2.1 | K 2.16 | W 2.34 | M 1.87
L21: P 2.07 | D 2.33 | Y 2.4 | K 2.38 | H 2.72 | S 2.17 | V 2.35 | T 2.6 | M 2.25 | C 2.16 | W 2.6 | G 2.22 | R 2.38 | A 2.14 | F 2.54 | Q 2.05 | E 1.82 | N 2.52 | I 1.76
T24: Y 2.32 | W 2.28 | M 2.17 | V 2.29 | C 1.6 | I 2.03 | R 2.6 | P 2.44 | E 2.22 | L 1.85 | F 2.06 | A 2.34 | Q 1.56 | N 2.23 | K 2.25 | G 2.17 | D 2.79 | H 2.56 | S 2.14
L18: V 1.81 | Q 2.35 | R 1.73 | K 1.78 | W 1.82 | P 2.15 | G 2.56 | S 2.01 | C 2.23 | M 1.84 | T 1.96 | A 2.15 | F 2.52 | D 2.1 | E 2.35 | H 1.84 | N 2.97 | Y 1.86 | I 2.08
P16: V 3.1 | H 1.55 | A 1.84 | Q 2.12 | D 2.2 | T 2.01 | N 2.03 | W 2.35 | C 2.23 | G 1.25 | S 1.4 | E 1.45 | F 1.51 | M 2.62 | Y 2.06 | I 1.63 | L 1.78
A14: P 2.07 | F 2.82 | N 2.2 | T 2.2 | R 1.87 | G 1.81 | E 2.11 | V 2.4 | L 2.75 | D 2.19 | Y 3 | M 2.19 | C 2.58 | I 2.83 | K 2.1 | Q 2.05 | H 2.15 | W 3.3 | S 2.86
A13: G 2.06 | S 2.28 | N 2.04 | D 2.12 | E 1.99 | R 1.8 | C 2.01 | M 2.51 | H 2.83 | I 2.46 | V 1.79 | W 1.64 | L 1.74 | K 1.95 | Y 1.85 | T 2.2 | P 1.86 | Q 2.25 | F 1.46
L12: V 2.44 | W 1.71 | A 2.52 | K 3.22 | P 2.17 | M 1.85 | C 1.83 | F 2.3 | I 2.12 | D 3.04 | S 1.9 | Y 1.76 | E 2.66 | G 2.66 | T 2.37 | H 2.33 | Q 2.23 | R 1.88 | N 2.32
S22: D 1.95 | N 2.23 | Q 2.38 | M 2.02 | V 1.78 | H 2.11 | C 2.34 | W 2.21 | Y 1.81 | K 2.57 | R 2.71 | A 2.81 | P 2.21 | I 2.28 | E 2.59 | F 2.46 | G 1.9 | L 2.4 | T 2.3
F15: M 2.06 | E 2.36 | H 2.06 | N 2.31 | V 2.38 | G 2.08 | L 2.16 | W 2.4 | C 1.78 | K 1.78 | D 2.3 | S 1.92 | Q 2.52 | A 2.23 | I 1.39 | T 2.1 | Y 1.7 | R 2.11 | P 2.49
N20: T 1.62 | K 1.49 | G 2.12 | E 2.25 | Q 2.09 | S 2.59 | D 1.51 | V 2.47 | Y 2.22 | A 2.08 | C 2.68 | I 2.24 | H 2.46 | L 1.77 | R 1.89 | F 2.17 | P 1.89 | W 2.04 | M 3.12
L11: T 1.92 | Y 2.19 | W 2.06 | V 2.5
